The target of this data set is CEBPβ bZIP DNA-binding domain (pXC1599) (Homo sapiens, UniProt P17676 269-344). As to the kind of experiment: X-ray crystallography.
Sequence of CEBPβ bZIP DNA-binding domain (pXC1599) (P17676 269-344): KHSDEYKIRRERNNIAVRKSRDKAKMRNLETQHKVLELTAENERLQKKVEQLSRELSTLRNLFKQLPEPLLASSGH

B1: Crystal 16-mer, T:G mismatch (dsDNA)
DNA 1: AGGATTGTGCAATATA
DNA 2: ATATTGCGCAATCCTT
Regarding B1, the binding result is “binds”.

Values taken from article PMC8136768.
